Numbering of substitutions follows the chain as printed. Names may count otherwise. Each block holds one molecule with its values, some of them ahead of it.
T1: CEACAM1 protein (CD66a), whole, on cells (human, UniProt P13688 35-526)
T1 construct: whole, on cells; also called CCM1
T1 sequence (looked up): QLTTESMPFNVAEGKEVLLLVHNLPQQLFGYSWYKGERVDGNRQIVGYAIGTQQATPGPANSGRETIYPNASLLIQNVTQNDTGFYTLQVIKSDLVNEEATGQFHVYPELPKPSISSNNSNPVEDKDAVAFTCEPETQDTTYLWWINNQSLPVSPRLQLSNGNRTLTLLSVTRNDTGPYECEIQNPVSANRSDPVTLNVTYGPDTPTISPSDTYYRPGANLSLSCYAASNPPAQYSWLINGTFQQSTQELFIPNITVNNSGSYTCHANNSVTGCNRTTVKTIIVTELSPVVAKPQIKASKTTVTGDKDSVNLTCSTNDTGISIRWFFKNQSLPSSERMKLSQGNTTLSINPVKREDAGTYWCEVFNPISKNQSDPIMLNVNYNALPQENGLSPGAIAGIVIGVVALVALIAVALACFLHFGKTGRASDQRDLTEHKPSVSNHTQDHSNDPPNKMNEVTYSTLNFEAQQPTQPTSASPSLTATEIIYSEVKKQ

T2: CCM1-R43A (CEACAM1 with 43R changed to 43A) (human, UniProt P13688 35-526)
T2 construct: whole, on cells; Expression lower than that of the other transfectants; also called CEACAM1-R43A
T2 sequence (looked up): T1 sequence (looked up) with R43A

T3: CCM1-RQ43,44SL (CEACAM1 with S and L at positions 43 and 44 instead of R and Q) (human, UniProt P13688 35-526)
T3 construct: whole, on cells; also called CEACAM 1-RQ43,44SL
T3 sequence (looked up): T1 sequence (looked up) with R43S, Q44L

T4: CCM1-Q44L (CEACAM1 with 44Q changed to 44L) (human, UniProt P13688 35-526)
T4 construct: whole, on cells; also called CEACAM1-Q44L
T4 sequence (looked up): T1 sequence (looked up) with Q44L

T5: CEACAM6 protein, whole, on 721.221 cells (human, UniProt P40199 35-320, GPI-anchored to the cell membrane)
T5 construct: whole, on cells; also called CCM6; CD66c
T5 sequence (looked up): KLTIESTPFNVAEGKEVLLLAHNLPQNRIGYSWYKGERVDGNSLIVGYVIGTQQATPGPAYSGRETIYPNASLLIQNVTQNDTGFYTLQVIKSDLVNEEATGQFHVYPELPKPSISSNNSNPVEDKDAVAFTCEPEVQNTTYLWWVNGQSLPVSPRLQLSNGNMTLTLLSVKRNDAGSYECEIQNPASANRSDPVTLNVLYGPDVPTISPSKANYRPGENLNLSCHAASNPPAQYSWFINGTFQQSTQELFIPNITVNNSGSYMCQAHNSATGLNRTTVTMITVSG

B1: CEACAM1-Ig fusion protein (extracellular portion of CEACAM1 fused to the Fc portion of human IgG1) (Fc fusion, UniProt P13688 35-428, looked up)
chain: QLTTESMPFNVAEGKEVLLLVHNLPQQLFGYSWYKGERVDGNRQIVGYAIGTQQATPGPANSGRETIYPNASLLIQNVTQNDTGFYTLQVIKSDLVNEEATGQFHVYPELPKPSISSNNSNPVEDKDAVAFTCEPETQDTTYLWWINNQSLPVSPRLQLSNGNRTLTLLSVTRNDTGPYECEIQNPVSANRSDPVTLNVTYGPDTPTISPSDTYYRPGANLSLSCYAASNPPAQYSWLINGTFQQSTQELFIPNITVNNSGSYTCHANNSVTGCNRTTVKTIIVTELSPVVAKPQIKASKTTVTGDKDSVNLTCSTNDTGISIRWFFKNQSLPSSERMKLSQGNTTLSINPVKREDAGTYWCEVFNPISKNQSDPIMLNVNYNALPQENGLSPG
notes: extracellular domain; Made in COS-7 cells, purified on protein G. A silent nucleotide change (A885G, glycine 281 unchanged) removes a BamHI site; also called CCM1-Ig; soluble CEACAM1-Ig; not shown: Fc portion of human IgG1
B2: CCM6-SL43,44RQ (CEACAM6 with R and Q at positions 43 and 44 instead of S and L) (receptor, human, UniProt P40199 35-320, looked up)
chain: T5 sequence (looked up) with S43R, L44Q
notes: whole, on cells; also called CEACAM6-SL43,44RQ
B3: CCM6-L44Q (CEACAM6 with 44L changed to 44Q) (receptor, human, UniProt P40199 35-320, looked up)
chain: T5 sequence (looked up) with L44Q
notes: whole, on cells; also called CEACAM6-L44Q
B4: CCM6-S43R (CEACAM6 with 43S changed to 43R) (receptor, human, UniProt P40199 35-320, looked up)
chain: T5 sequence (looked up) with S43R
notes: whole, on cells; also called CEACAM6-S43R
B5: CCM6-TailCCM1 (entire extracellular portion of CEACAM6 fused to the transmembrane and tail portions of CEACAM1) (receptor, human, UniProt P40199 35-320, looked up)
chain: KLTIESTPFNVAEGKEVLLLAHNLPQNRIGYSWYKGERVDGNSLIVGYVIGTQQATPGPAYSGRETIYPNASLLIQNVTQNDTGFYTLQVIKSDLVNEEATGQFHVYPELPKPSISSNNSNPVEDKDAVAFTCEPEVQNTTYLWWVNGQSLPVSPRLQLSNGNMTLTLLSVKRNDAGSYECEIQNPASANRSDPVTLNVLYGPDVPTISPSKANYRPGENLNLSCHAASNPPAQYSWFINGTFQQSTQELFIPNITVNNSGSYMCQAHNSATGLNRTTVTMITVSGAIAGIVIGVVALVALIAVALACFLHFGKTGRASDQRDLTEHKPSVSNHTQDHSNDPPNKMNEVTYSTLNFEAQQPTQPTSASPSLTATEIIYSEVKKQ
notes: extracellular domain;domain: transmembrane and tail portions
B6: CD99-Ig fusion protein (control) (Fc fusion, UniProt P14209 23-122, looked up)
chain: DGGFDLSDALPDNENKKPTAIPKKPSAGDDFDLGDAVVDGENDDPRPPNPPKPMPNPNPNHPSSSGSFSDADLADGVSGGEGKGGSDGGGSHRKEGEEAD
notes: extracellular domain; Made in COS-7 cells, purified on protein G; construct described elsewhere; also called control CD99-Ig; not shown: human IgG1 Fc portion

Experiments:
[1] = target: T1, CEACAM1 protein (CD66a), whole, on cells; experiment: cell-based or functional assay
[2] = target: T2, CCM1-R43A (CEACAM1 with 43R changed to …); experiment: flow cytometry on 721.221 transfectants
Source text: (§1) The staining of the secondary reagent FITC-conjugated goat anti-mouse F(ab_)2 of each cell type was used as background (_). The y-axis indicates the median fluorescence intensity (MFI). […] The y-axis indicates the median fluorescence intensity (MFI). […] The E:T cell ratio was 2:1.
(§2) Specificity of CEACAM1 Binding to CEACAM6 is Controlled by the Presence of Both 43R and 44Q Residues To determine whether both residues are required for binding, the amino acid residues in positions 43 and 44 in CEACAM1 (contains 43R44Q) and CEACAM6 (contains 43S44L) were mutated. Using site-directed mutagenesis in the CEACAM1, the 43R residue was changed to 43A (CCM1-R43A) and the 44Q residue was changed to 44L (CCM1-Q44L). In CEACAM6, the 43S was changed to 43R (CCM6-S43R) and 44L was changed to 44Q (CCM6-L44Q). All mutants were generated as described in Materials and Methods and stably transfected into 0.221 cells. The expression level was monitored by Kat4c mAb, and conformation was monitored by 5F4 mAb (FIG. 7A). […] Similar results were obtained when both 44Q and 43R residues in CEACAM1 were mutated (FIG. 5).

[3] = target: T3, CCM1-RQ43,44SL (CEACAM1 with S and L at …); experiment: flow cytometry on 721.221 transfectants
Source text: as §1, §2

[4] = target: T4, CCM1-Q44L (CEACAM1 with 44Q changed to …); experiment: flow cytometry on 721.221 transfectants
Source text: as §1, §2

[5] = target: B1; experiment: flow cytometry on 721.221 transfectants
Source text: as §1, §2

[6] = target: T5, CEACAM6 protein, whole, on 721.221 cells; experiment: flow cytometry on 721.221 transfectants
Source text: as §1, §2

[7] = target: T1, CEACAM1 protein (CD66a), whole, on cells; experiment: flow cytometry on 721.221 transfectants
Source text: as §1, §2

[8] = target: B2; experiment: flow cytometry on 721.221 transfectants
Source text: as §1, §2

- intracellular IFN-gamma staining of the NKT clone after cross-linking with Kat4c (fold above background) [1]: 4.5
Molecule: mAb Kat4c (DakoCytomation), directed against CEACAM1, -5, -6, and -8 (antibody)

Molecule: B1
- binding result [2]: no binding
- binding result [3]: no binding
- binding result [4]: no binding

Molecule: B2
- binding result [5]: binds

Molecule: B3
- binding result [5]: no binding

Molecule: B4
- binding result [5]: no binding

Molecule: B5
- binding result [5]: no binding

Molecule: B6
- binding result [6]: no binding
- binding result [7]: no binding
- binding result [8]: no binding
- binding result [3]: no binding

— patent US9731036 (dated 2017)
